The results in this text go back to publication PMC6351562, “Structure, function, and inhibition of drug reactivating human gut microbial β-glucuronidases” (Scientific Reports, 2019).

A word on the Km: it is the substrate concentration at which the rate is half of its maximum. For orientation: kcat means the maximal rate divided by the concentration of active sites. By kcat/Km is commonly meant the turnover number divided by the Michaelis constant.

This series deals with O=C(O)[C@H]1O[C@@H](Oc2ccc([N+](=O)[O-])cc2)[C@H](O)[C@@H](O)[C@@H]1O. The experiment in a line: purified protein, by the assay type. Conditions: other: pNPG as substrate, optimal pH 5.0, 37 °C.

Consider “Bacteroides fragilis GUS (BfGUS) (Bacteroides fragilis NCTC 9343)”, for which the Km was found to be 580 ± 90 µM, the kcat is 22 s⁻¹ and the kcat/Km was determined as 39000 M⁻¹ s⁻¹.
